For test [1], the target named is T1, protein deglycase DJ-1, Q99497.
T1 chain: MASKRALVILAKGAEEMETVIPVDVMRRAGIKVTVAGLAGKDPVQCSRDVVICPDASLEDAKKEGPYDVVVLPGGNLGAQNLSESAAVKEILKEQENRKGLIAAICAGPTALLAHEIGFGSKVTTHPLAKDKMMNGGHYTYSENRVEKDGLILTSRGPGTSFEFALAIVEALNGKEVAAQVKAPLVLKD
Put plainly: native MS. The following applies: remark: other sources report otherwise.

Test [2] addresses T2, heart isozyme of murine fatty acid binding protein (mouse), P11404.
T2 chain: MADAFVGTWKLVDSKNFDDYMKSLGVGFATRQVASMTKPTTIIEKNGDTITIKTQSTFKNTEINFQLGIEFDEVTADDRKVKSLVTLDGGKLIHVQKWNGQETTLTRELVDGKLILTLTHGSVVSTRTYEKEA
Put plainly: native MS. The following applies: remark: other sources report otherwise.

B1: protein deglycase DJ-1, Q99497 1-189 (enzyme)
chain: MASKRALVILAKGAEEMETVIPVDVMRRAGIKVTVAGLAGKDPVQCSRDVVICPDASLEDAKKEGPYDVVVLPGGNLGAQNLSESAAVKEILKEQENRKGLIAAICAGPTALLAHEIGFGSKVTTHPLAKDKMMNGGHYTYSENRVEKDGLILTSRGPGTSFEFALAIVEALNGKEVAAQVKAPLVLKD
As for B1, the stoichiometry N in test [1] was determined as 2.

B2: heart isozyme of murine fatty acid binding protein, P11404 1-133 (natural protein)
chain: MADAFVGTWKLVDSKNFDDYMKSLGVGFATRQVASMTKPTTIIEKNGDTITIKTQSTFKNTEINFQLGIEFDEVTADDRKVKSLVTLDGGKLIHVQKWNGQETTLTRELVDGKLILTLTHGSVVSTRTYEKEA
On to B2, for which the stoichiometry N in test [2] was determined as 2.

Source of the values: paper PMC5726920.
